The text below walks through data of a protein production outcome set (Wang et al. 2014).

A short description of this data set: label from the status in PepcDB records.
For the sequence “MPQWRVRMHSGGLELALVLMLAAIVAVPVFKRFGLGAVLAYLVAGVVLGPDGAGVVQDAERISGAAEIGVVMLLFVIGLELSPARLKVMRHSVFGAGATQVLVTAVILGGLLMAAQLGWKSALIVGVALALSSTAVGLQLLAERKALSSDYGRLAFAILLFQDLIAIPLLAAIPLLGGSKNATLQWQDVAKAVAALALVIVCGRFVLRHLFNVVARTRMPEVFTASALLVVLGTAWIMQEAGLSASLGAFIAGVLLADSEFRHELESQIEPFEGLLLGLFFISVGMGIDLHRVVAEPWLIAAGVAILLVVKFSLLVGIGSVAKLPLRSSLMLGSVLWLGGEFAFVVFNEADRVGLLEPANHDRLVAIVGVSMALTPLLLLGMQRILNGPLRARAPKTDRPFDTIDAQTPKVLVAGMGRFGQVVARLLTARHVPFVALEHNPDTVEDLRRFGSQLYYGDPTRPELLRAAGAERIKVFVIAVDDPETNIKTVRLIRRLYPQATVLARARNRQHAWKLMDLGAEPFREVFASSLELSERVLTSLGLGEALAHDHVKRFRQHDEDLLRRQHLVYDDEAKVIQTSRDARADLMNLFEADVRADVDGEPAPTLRER”, the protein production result was “failed”.

For the sequence “MPRLAISRLWPMLTAVALLSPLATAQQGQTLRAGELTVTLTPTQPDSNGWYRAGRLELQGTDEGIRGVETSRLRGAVLGELSPDGRWLSVLGTGGGYVQLWNVATAERQFTFLAHDKKSYDARLAAFSPDSRRLVFYSYPNELSLWDTATGVRVKLLSDVRKGGWWTADADAVFSPDGKTFVVTGGGGGAQLFDTRTGDLLQTFDRPCQSFGPGSPGGFWRGAVGATFSADGKNVAVLYAGGAARLYGVAGAGALAKASWKLDNFKPSQMRFWAGKLTLNGRELSGKTPNGLSFTLTF”, the protein production result is “failed”.

For the sequence “MPRVDHGSPQAGPPAPCVGILLAGGQGRRFAAASGGQDKLLARLADGTAVAVRAAAALREATDAVVAVVRPESAVLAALLRGQGCHVLESEQAREGMGASLAAAARFLLAGQVPDMPERADVCLVALADMPWVRRDTLSAVRAAACADGITVPVHQGRRGHPVAFGRSLWGELAALRGDVGARELLRRHRVAAVEVDDPGVAADVDTPGDLAGDRALEHHHHHH”, the protein production entry is listed as “failed”.

Turning to “MPRYQATLLIELKKGILDPQGRAVEGVLKDLGHPVEEVRVGKVLEIVFPAENLLEAEEKAKAMGALLANPVMEVYALEALKELP”, the protein production result is on record as “not failed”.

As to “MPSAEISSSTEAKQAATTVDVSYKTHVQTFGWQDWAANGASAGTTGLAKRLEAIQIKTSAPASQGGIRYRTHVQTYGWLDWVSDGASSGTTGEAKRLEAIQIELTGALATQYDVYYRVHAQTFGWLDWACNGASAGSAGYAKRLEAIQIVLVPKGGKAPGSTAAPYKELPPAVSYQSYLSGAWQNSVLDNAVSGTVGQAKQIEGIKISLQDKAVSFAGSSIQYRTYLQTYAWQDWTSNGGTSGKPGSGKRVEAVQIKLTGSIASSYDVYYRVHSQTFGWLDWACNGQSAGSAGYAKRIEAIQIVLVKKGGAAPGSTATPYKEAPPSVTYQTYISGGWQPTVADKATSGLAGQGKKTEGLRVSLKAGAQSLGNSSVKYRTYLQTYGWQSWVSNGASSAKAGSGKRMEAIEISLTGDISSQYDIYYRSYVTGYGWLGWACNGATSGTTDYAKPIEAVQAVLVKKGGAAPGSTSNAYLKPEVTGPFEISFSPSGASNFGGLVSIEPDHDVILVASAKGGAGGYQYRYRAELIGGSIQTLKDYSGSSSYTWRPNTPGRYKMYVDVKDSTGTVKTAMFQMSVGLSGIDVSEHQGTIDWKKVKAAGIDYAMIRAGFGWEEIDDQTDASLVQNVTGAKQAGLPFGLYHYSYADTVEEAKKEAEFLLDILEANNIAPSDLSYPIAFDIEEPDRLNVSQRRVNTDMVNAFCEIIRDAGYLPMVYASKTVIQDYLYYDEISANNIWMAAWTSTPNDTEIFDNCFPVDMWQYSESGTVDGINGRVDLNICYTTVFRDGSADTTQKGKVVVDAGSSLNVRKAPSVNADVVGSLYKDDIVTIISETSGWYQIVTSTGVSGYVSAEYIQKI”, the protein production result is on record as “failed”.

For “MPSEKEILDALSKVYSEQVIQADDYFRQAIFELASQLEKEGMSSLLATKIDSLINQYILTHQFDAPKSIFDLSRLVKTKASHYKGTAISAIMLGSFLSGGPK”, the protein production entry is given as “not failed”.

Regarding “MPSGQEGLDKFHNLNKGKTMFMQRLITTLILVPLVLLAIFYAPSWILWGVVLVILLLAGMECFKLIPVDNLTVQACFLIFLLMCFWACGYFYSYWLSVGLLVWLLNGLAILTYPRSQNYWGYPIVVAIASLILLPLFTQSLMQISFLQQGKELLVYLLFLIWASDIGAYLTGKQWGKHKLIPKVSPGKSWEGVTGGVILAMIVATLGYYYFIPYSIYIWFGLALSTVVISIFGDLFISILKRRCQLKDTGNIIPGHGGILDRLDSLIAALPWFYFGLTYIPLGI”, the protein production result is “failed”.

As to “MPSIKIRENEPFEIAIRRFKRACEKAGVLSEVRRREYYEKPTEERKRKAAAAIKRHLKKLSRERFALQNLRKGRPQQLEHHHHHH”, the protein production result was “not failed”.

Turning to “MPSKQDVLLLDYWDQWAEAYRINGKSINTVYRYKLFRKHLKSRFDGRKLNSIRPIEWQKFINDFAAGKDRKEKTTRKRPRERSKDIVTKMNSYVRGMVKAAINERILFSDFTFGTKTSGVRSSGKVKVLEHHHHHH”, the protein production result is “not failed”.

As for “MPSLCKLNPCIQTHKEVIMDNLITQLLFSASITGPICVMLLLGVLLKRIHLINDNFIEVASKLVFQVTLPAMLFLSIVNAKHDFSSSSHLIIYGLIANFVFFLFTIYSTRFAFKNKQNHGVIIQGGFRANTAIIALAYVANAYGNTGVALAAIYVASTTILYNIQAVIALTPKNENNKKQAVGIIIKTLTKNPLIISIVLGIICSLLSIPVPGMLSQAGQYFANMTLPLALLCAGGSLNLHSMKEESAATWFATSYKLILSPLFITSGGILVGFRGLELGLIFFMSAAPTAAASYVMARAMGGNAILAANIIAQTTVASLFTCTLGIFVLSSFNLI”, the protein production result is recorded as “failed”.

Regarding “MPSLGEAPQDLQRSQERRRIERIFAQGGKGVASPHRFPGPLPMLQNIPTHVIAGPLGAGKTSLIRHLLSQRPAAERWAVLINEFGQIGLDAALLTRDEDGIALGEVAGGCLCCVNGAPFQVGLGRLLRKARPDRLLIEPSGLGHPAQLLKQLNEAPWKGVLAVQPCVLVLDAQALAAGKPLPRAQQDALSSAGLLVLNKDELLSDSDRLRVLEQLPDLPLFWTRHAALPLAELPGLGASAEAALEQSDIPQGLAQLPAVWSDPTLPICLSQSQEDGWSIGWRWHPSQQFDLVRVEHWLQNLDWRRAKLVLHSDQGWRSGNGLDNSPLNWLPSEWRRDSRLELIFSSPQDIAVLQASLDACRLLEHHHHHH”, the protein production result is given as “failed”.

In the case of “MPSLPDRRRWLLDGARDTVPMMVGAAPFGLIFGTLAIAAGLSPAATAAMSLLVFAGSSQFIAVSLVSAGAALPVIWLTTFVVNLRHALYSATLLPYARPWPLAWRWPLAFWLTDETFAVVEHRFRSLGAEGGQWYWLGSSLSMYLNWQLWTLAGVALGRSVPGLDRLGLDFAMVATFAAIVAPQLKKRPTLAAALAAGAVALLARGLPYKLDLMLAALAGVAAGMMVERGQKREAA”, the protein production entry is “failed”.

As to “MPSLSVRGSLLLVCALAVTGCASLQSQDQINYAHCRMVGQASKAEKFDVVLQEADLCLEKNQLSQPMQSLVYWLKSDAYASFKRYPEAIAAKEKSIELGPKPDARAVLDLSRLYREAGNPQKALELVQSNLDNNLGEAGKGSGFNMPTYYHLGQTLYDLGRYREAAEAYSTGLLKQPDYAWAFYHRGLAYDKLGQTDDARADFAQFAKLVNQKYVEPQHQAKLAEYKIKLP”, the protein production result is listed as “failed”.

Turning to “MPSPSGGWGCGGTWARGVDGARLFSIHHQAVRPNLSTISPPKEPPMIEVRHLCKSFARKPAVQDISFSIPAGEIVGYLGPNGAGKSTTIKVLTGLLVPDSGEVRVGGLVPWKQRRQHVARLGAVFGQRTTLWWDLPVRESLELLRHVYRVPAARFAENLAGFTELLELGPFLNTPARALSLGQRMRADLAAALLHDPELLFLDEPTVGLDVVAKERIREFVKAVNAERGVTVLLTTHDLGDVERLARRVMMIDTGRLLFDGPLAELQARYGGERELWVEFEKAPAQPALPGLTLLGQDGPRVRYGFSGAAAAPIAQVTALAPVRDLAVKEPEVEATIRRIYEGNLLGSRSVREGLEHHHHHH”, the protein production entry is listed as “failed”.

“MPSPVLIAIDASPASSTLLTLARRYCRPGEHELHVLLAIDSTFAVHEQPAPYTAEELEEYPAACQEQQHADHAVAEAVRELQQAGFASQGCMVAGLPVEAIVTKAQELNCELIIMGHRHLSRLGRLLDPSISAKVIDRVDMPVLV”: the protein production entry was “failed”.

Take “MPSTVSSSRLGLAGLCILLAGQLLPMIDFSIVNVALDALAHSLGASETELELIVAVYGVAFAVCLAMGGRLGDNYGRRRLFVLGVALFAVASLLCGLAGSVWLLLVARALQGVGAALVVPQILATLHVSLSGHAHSRALAAYGAIGGLAFVVGQVLGGFLVSADIGGLGWRSVFLINLPICLGILLCSRRWVPETRAEHAARVDAPGTLLLAALILCLLLPLALGPSLHWSWPCALLLAAAVPLLAWLWRTELRQERRQAWPLLPPSLLRLPSIRFGLLLAILFFACWSGFMFALALALQAGAGLSPVQAGNAFIALGASYFVSALLTARVAARIGPVRLLLLGCVIQMCGLLGLMLTLQRVWPQPGILNLAPATLVIGFGQAFIVSSFFRIGLSEVPAAQAGAGSAMLATVQQASLGLGSALLGAVFAHRLERHGDYLEATQTTLAVEFVLMTLLLGATCLFYLRRVRTVPLRCDSPGN”: the protein production entry is listed as “failed”.

Consider “MPTLFDDPLHQLPRPPRRVAAGVVHLPNFLGLAEQKALVAQARDLAREVVGTPLAMVRPKLKSGQMSVHMLHLGKYWASNPYRYVDVVDGFPVPPLPDSFVDLAHRALLSAGSLSNSLQSWSEAYRAEAALVNYYSPDASMGMHQDANEESEAPVISLSIGDTGIFRLGGTLNRNKPWTDIPLMSGDLIVFGGANRQAFHGIPSIEANTAPAGCGLKEGRINITIRQLALLEHHHHHH”, for which the protein production result was “not failed”.

For “MPTPFDVTILGGGLAGRLCAWQLAQTGVPPARIAVVERGARDGSGSAAYVAAAMLAPLAEAAVADRFVVELGLASLTLWRDWLPMLRTPVFFQQAGTLVVWHPADRGEASLFANHVRAATPPERIAADLRAVDAEGIGTLEPALAQRFSQGLYLAGEGQLDNRAVLDALATELEALGVQLRWNTAVADPHPQALAAAGLGARLVLDCRGLGAQPQWPQLRGLRGEVARIHAPDVTLTRPVRMLHPRYPIYIAPKPGHVYVIGATEIESDDMSPVSVRSTLELLSAAYAVHPAFGEARVLELCTQCRPTLPDHRPAIRWDGAGTLSVNGLYRHGYMIAPAVAQAAVAAAHALLDGRAIDAPASAWPGLFAAPASPEPVLPLEHHHHHH”, the protein production result was “not failed”.

On to “MPTTRKENLQFGMMMCLGMVIVMTFYNLLMNETGGPIYIKEIALELLIGFIIALLIEISIVGPCAKKIVFMLPFDKSKKINIIVAMATTMVIGMVFFMSFFGMAMMHLHGGLQGASFVSIYFSIFIKNFIMAYPLQLIIMGPLVRFLFAKFVMKKKSFNVA”, for which the protein production entry is listed as “failed”.

On to “MPTVAPLDIEGHVVSTHFLGDIPLFATAAGTIHRLDGGEKVTEAHDGLLTCIRDPYSATLLSGGEDGRVLRIGHDGSISEIANVPRKWVGVVAGGPQKAVAYGVGKSSFVRLSDCTVKEFKEERTVEAIAFAPKGLRIAVARYNGVTLHWVATAGDPVDLEWKGAHTGVTFSPDGKFLVTTMQENALHGWKMEATKGGMEARHMRMTGYPAKVKSISWSVKGKWLASSGAPAAIVWPFSGKDGPMGKAPEELGSRANIMATNVAFHPVEDVLAIGFIDGMILGVRLADGKEALLRRPGKGAITSMDWSATGNLLAFASEAGDCGIIDISALEHHHHHH”, for which the protein production result was “failed”.
